Patent US9260500B2, “Peptide and use thereof” (Takeda Pharmaceutical Company Limited, priority 2009, dated 2016)
Non-standard residues stand in square brackets, D forms with d. Primed or numbered codes have the meaning given here. No end group written: not given here. *: point of attachment. Hyp = O=C(O)[C@@H]1C[C@@H](O)CN1; tBuAla = CC(C)(C)C[C@H](N)C(=O)O; 4Pal = N[C@@H](Cc1ccncc1)C(=O)O; Cha = N[C@@H](CC1CCCCC1)C(=O)O; 4Amb = NCc1ccc(C(=O)O)cc1; Isobutyryl = CC(C)C(=O)*; Iva = CC[C@](C)(N)C(=O)O; PEG2′ = not defined here; Abu = CC[C@H](N)C(=O)O; Aib = CC(C)(N)C(=O)O; Ahx = NCCCCCC(=O)O

Legend:
human Y2 receptor [1] = biological target: T1, human Y2 receptor (Homo sapiens, UniProt P49146); assay: Human Y2 Receptor G Protein Binding Assay (GBA), [35S]GTPγS; type: biochemical; details: EC50 of test compound/EC50 of PYY(3-36) (PYY3-36 taken as 1), hY2R/CHO membrane fraction
T1 construct: expressed in transfected cells; membrane fraction
T1 sequence (P49146 1-381): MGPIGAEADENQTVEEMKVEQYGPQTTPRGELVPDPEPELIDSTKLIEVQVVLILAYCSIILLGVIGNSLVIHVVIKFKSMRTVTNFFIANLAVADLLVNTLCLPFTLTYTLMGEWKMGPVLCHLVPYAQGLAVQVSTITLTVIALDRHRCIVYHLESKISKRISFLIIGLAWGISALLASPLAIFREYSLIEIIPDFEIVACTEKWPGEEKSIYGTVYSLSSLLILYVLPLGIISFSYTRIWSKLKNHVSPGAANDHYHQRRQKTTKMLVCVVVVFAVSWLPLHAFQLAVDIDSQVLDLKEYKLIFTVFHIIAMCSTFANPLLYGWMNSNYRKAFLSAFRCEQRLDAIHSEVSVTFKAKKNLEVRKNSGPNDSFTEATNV
Summary of the method: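 Agonism measured as [35S]GTPγS binding, read by GF/C filtration and scintillation counting after 120 min at room temperature, using human Y2 membranes at 1 μg protein/mL in pH 7.4 Tris/MgCl2/NaCl/GDP buffer. Compound serially diluted 100 μM–1 nM; EC50 normalized to PYY(3-36) (ratio = compound/PYY).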

human Y2 receptor [2] = biological target: T1, human Y2 receptor; assay: Receptor Binding Assay (RBA) for Human Y2, [125I]-PYY displacement on hY2R/CHO membrane fraction; details: IC50 of test compound/IC50 of PYY(3-36) (PYY(3-36) taken as 1)
Summary of the method: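 Read-out is [125I]-PYY displacement from membranes of CHO/dhfr− cells stably transfected with human Y2R. Membranes were obtained by disrupting cells in a buffer of 10 mM NaHCO3, 5 mM EDTA and protease inhibitors.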

Substance | GBA EC50 Ratio (human Y2 receptor [1]) | RBA IC50 Ratio (human Y2 receptor [2])
Ac-[Arg23, D-Pro24, Iva25, Pya(4)26, Cha27,36, Aib28,31, Lys30]-PYY(23-36) (Ac-R[dP][Iva][4Pal][Cha][Aib]NK[Aib]TRQR[Cha]-NH2; SMILES CC[C@](C)(NC(=O)[C@H]1CCCN1C(=O)[C@H](CCCNC(=N)N)NC(C)=O)C(=O)N[C@@H](Cc1ccncc1)C(=O)N[C@@H](CC1CCCCC1)C(=O)NC(C)(C)C(=O)N[C@@H](CC(N)=O)C(=O)N[C@@H](CCCCN)C(=O)NC(C)(C)C(=O)N[C@H](C(=O)N[C@@H](CCCNC(=N)N)C(=O)N[C@@H](CCC(N)=O)C(=O)N[C@@H](CCCNC(=N)N)C(=O)N[C@@H](CC1CCCCC1)C(N)=O)[C@@H](C)O) [compound No. 321] | 0.78 | 0.88
Piperidinocarbonyl-[Glu23, D-Pro24, Pya(4)26, Cha27,36, Aib28,31, Lys30]-PYY(23-36) (piperidinocarbonyl-E[dP]R[4Pal][Cha][Aib]NK[Aib]TRQR[Cha]-NH2) [compound No. 193] | 2.4 | 3.3
Ac-[Hyp23, D-Pro24, Cha27,28,36, Aib31]-PYY(23-36) (Ac-[Hyp][dP]RH[Cha][Cha]NL[Aib]TRQR[Cha]-NH2; SMILES CC(=O)N1C[C@H](O)C[C@H]1C(=O)N1CCC[C@@H]1C(=O)N[C@@H](CCCNC(=N)N)C(=O)N[C@@H](Cc1c[nH]cn1)C(=O)N[C@@H](CC1CCCCC1)C(=O)N[C@@H](CC1CCCCC1)C(=O)N[C@@H](CC(N)=O)C(=O)N[C@@H](CC(C)C)C(=O)NC(C)(C)C(=O)N[C@H](C(=O)N[C@@H](CCCNC(=N)N)C(=O)N[C@@H](CCC(N)=O)C(=O)N[C@@H](CCCNC(=N)N)C(=O)N[C@@H](CC1CCCCC1)C(N)=O)[C@@H](C)O) [compound No. 126] | 5.0 | 7.3
[Acp23, D-Pro24, Pya(4)26, Cha27,36, Aib28,31, Lys30]-PYY(23-36) (Ac-[Ahx][dP]R[4Pal][Cha][Aib]NK[Aib]TRQR[Cha]-NH2) [compound No. 304] | 1.1 | 0.32
Isobutanoyl-[Abu26, Cha27,28,36, Leu(Me)30, Aib31]-PYY(25-36) (Isobutyryl-R[Abu][Cha][Cha]N[tBuAla][Aib]TRQR[Cha]-NH2; SMILES CC[C@H](NC(=O)[C@H](CCCNC(=N)N)NC(=O)C(C)C)C(=O)N[C@@H](CC1CCCCC1)C(=O)N[C@@H](CC1CCCCC1)C(=O)N[C@@H](CC(N)=O)C(=O)N[C@@H](CC(C)(C)C)C(=O)NC(C)(C)C(=O)N[C@H](C(=O)N[C@@H](CCCNC(=N)N)C(=O)N[C@@H](CCC(N)=O)C(=O)N[C@@H](CCCNC(=N)N)C(=O)N[C@@H](CC1CCCCC1)C(N)=O)[C@@H](C)O) [compound No. 81] | 26 | 51
Ac-[Dap22, D-Pro24, Pya(4)26, Cha27,36, Aib28,31, Lys30]-PYY(22-36) [compound No. 273] | 1.6 | 1.2
[(PEG2)23, D-Pro24, Cha27,28,36, Aib31]-PYY(23-36) ([PEG2′][dP]RH[Cha][Cha]NL[Aib]TRQR[Cha]-NH2) [compound No. 118] | 0.9 | 0.9
4-Aminomethylbenzoyl-[Ala26, Ile28, VAl31]-PYY(25-36) ([4Amb]RAYINLVTRQRY-NH2; N-terminus assumed; SMILES CC[C@H](C)[C@H](NC(=O)[C@H](Cc1ccc(O)cc1)NC(=O)[C@H](C)NC(=O)[C@H](CCCNC(=N)N)NC(=O)c1ccc(CN)cc1)C(=O)N[C@@H](CC(N)=O)C(=O)N[C@@H](CC(C)C)C(=O)N[C@H](C(=O)N[C@H](C(=O)N[C@@H](CCCNC(=N)N)C(=O)N[C@@H](CCC(N)=O)C(=O)N[C@@H](CCCNC(=N)N)C(=O)N[C@@H](Cc1ccc(O)cc1)C(N)=O)[C@@H](C)O)C(C)C) [compound No. 39] | 4.0 | 7.2
